In assay [1] the target is T1, Peptide 1, non-conjugated (MADDYGSEST-C) (human).
T1 construct: With the extra C-terminal Cys
T1 peptide: MADDYGSESTC
The assay can be described thus: ELISA; Ab 0.25 ug/mL; repI. How it is done:
(§1) In brief, plates with each non-conjugated peptide (50 μg/mL) or BSA-conjugated peptide (5 μg/mL) were coated in 0.58M carbonate-bicarbonate buffer pH9.5, 100 μL/well, at 4° C. […] After washing, wells were incubated with the 3, 3′,5,5′-Tetramethylbenzidine (TMB) HRP substrate and reactions were stopped with 2M HCl and OD450 was recorded.

The target of assay [2] is T2, antigen peptide-BSA (immunisation peptide #1 MADDYGSESTSSMEDYVNFNF-C conjugated to BSA) (human, extra C-terminal Cys conjugated to BSA).
T2 construct: also called Positive control antigen peptide-BSA; MADDY peptide
T2 peptide: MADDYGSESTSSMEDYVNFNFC
The assay can be described thus: ELISA; Ab 0.25 ug/mL; repI. How it is done: as §1

Assay [3] addresses T3, Peptide 2, non-conjugated (GSESTSSMED-C) (human).
T3 construct: With the extra C-terminal Cys
T3 peptide: GSESTSSMEDC
The assay is described as follows: ELISA; Ab 0.25 ug/mL; repI. The method, then: as §1

Assay [4] concerns the target T4, Peptide 2-BSA (GSESTSSMED-C conjugated to BSA) (human).
T4 peptide: GSESTSSMEDC(BSA)
The assay is described as follows: ELISA; Ab 0.25 ug/mL; repI. The method, then:
as §1

Assay [5] deals with T5, Peptide 4-BSA (SMEDYVNFNF-C conjugated to BSA) (human).
T5 peptide: SMEDYVNFNFC(BSA)
The assay can be described thus: ELISA; Ab 0.25 ug/mL; repI. How it is done:
as §1

The target in assay [6] is T6, Peptide 4, non-conjugated (SMEDYVNFNF-C) (human).
T6 construct: With the extra C-terminal Cys
T6 peptide: SMEDYVNFNFC
The assay can be described thus: ELISA; Ab 0.25 ug/mL; repI. How it is done:
as §1

The target in assay [7] is T7, Peptide 3-BSA (SSMEDYVNFN-C conjugated to BSA) (human).
T7 peptide: SSMEDYVNFNC(BSA)
The assay can be described thus: ELISA; Ab 0.25 ug/mL; repI. How it is done: as §1

Assay [8] concerns the target T8, BSA (negative control coating) (bovine, UniProt P02769 25-607).
T8 construct: also called Negative control BSA
The assay can be described thus: ELISA; Ab 0.25 ug/mL; repI. The method, then:
as §1

Assay [9] deals with T9, Peptide 1-BSA (MADDYGSEST-C conjugated to BSA) (human).
T9 peptide: MADDYGSESTC(BSA)
The assay is described as follows: ELISA; Ab 0.25 ug/mL; repI. The method, then: as §1

The target of assay [10] is T10, Peptide 3, non-conjugated (SSMEDYVNFN-C) (human).
T10 construct: With the extra C-terminal Cys
T10 peptide: SSMEDYVNFNC
The assay is described as follows: ELISA; Ab 0.25 ug/mL; repI. How it is done:
as §1

The target of assay [11] is T11, biotin-peptide YCEKNNVRQF (human).
T11 peptide: Biotin-YCEKNNVRQF
The assay is described as follows: ELISA, biotin-peptide.

Another assay deals with T12, biotin-peptide KNNVRQFAS (human).
T12 peptide: Biotin-KNNVRQFAS
The assay can be described thus: ELISA, biotin-peptide.

The target of assay [12] is T13, biotin-peptide SESTSSMEDY (human).
T13 peptide: Biotin-SESTSSMEDY
The assay is described as follows: ELISA, biotin-peptide.

For assay [13], the target named is T14, biotin-peptide TDFTSPIPNM (human).
T14 peptide: Biotin-TDFTSPIPNM
The assay is described as follows: ELISA, biotin-peptide.

For assay [14], the target named is T15, biotin-peptide DYGSESTSSM (human).
T15 peptide: Biotin-DYGSESTSSM
The assay is described as follows: ELISA, biotin-peptide.

Assay [15] addresses T16, biotin-peptide SMEDYVNFNF (human).
T16 peptide: Biotin-SMEDYVNFNF
The assay is described as follows: ELISA, biotin-peptide.

For assay [16], the target named is T17, biotin-peptide TSSMEDYVNF (human).
T17 peptide: Biotin-TSSMEDYVNF
The assay is described as follows: ELISA, biotin-peptide.

Assay [17] concerns the target T18, biotin-peptide TDFYCEKNNV (human).
T18 peptide: Biotin-TDFYCEKNNV
The assay is described as follows: ELISA, biotin-peptide.

Assay [18] concerns the target T19, biotin-peptide MEDYVNFNFT (human).
T19 peptide: Biotin-MEDYVNFNFT
The assay is described as follows: ELISA biotin-peptide; scFv 0.15625 ug/mL; repI. The method, then: (§2) The peptides were synthesized naked or with a N-terminal Biotin modification with a purity of >98%. All four scFvs were verified by ELISA that can be detected with anti-His antibodies. ELISA was performed for scFv-peptide binding validation. Briefly, naked peptides were coated (50 μg/mL) in 0.58M carbonate-bicarbonate buffer pH9.5, 100 μL/well, 4° C. O/N. Then after blocking (3% BSA-PBS, 300 μL/well 37° C. 1.5 h) and washing (PBS+Tween-20 0.05% v/v (0.05% PBST), wells were incubated with each purified scFv antibody at concentration of 1 μg/mL in PBS at 37° C. 1 h. After washing (0.05% PBST), wells were incubated with secondary antibodies (goat anti-His IgG-HRP) in PBS, 37° C., 30 min. After washing, and incubation with TMB substrate, reactions were stopped with 2M HCl and reading was quantified at OD450.
(§3) ELISA with biotin-conjugated peptides (5 μg/mL) was performed very similar to described above with minor modifications.
(§4) A full curve ELISA was performed for each positive scFv/biotin-peptide pair in order to confirm previous results. Tables 15-17 show ELISA results of the dose-dependent full curve for each positive peptide with scFv “CCR9_HUM”, “Comp-2” and “Comp-3”, respectively.

For assay [19], the target named is T20, biotin-peptide SSMEDYVNFN (human).
T20 peptide: Biotin-SSMEDYVNFN
The assay can be described thus: ELISA biotin-peptide; scFv 0.15625 ug/mL; repI. How it is done:
as §2, §3, §4

The target of assay [20] is T16, biotin-peptide SMEDYVNFNF
The assay is described as follows: ELISA biotin-peptide; scFv 0.15625 ug/mL; repI. How it is done:
as §2, §3, §4

The target in assay [21] is T17, biotin-peptide TSSMEDYVNF
The assay can be described thus: ELISA biotin-peptide; scFv 0.15625 ug/mL; repI. How it is done: as §2, §3, §4

For assay [22], the target named is T19, biotin-peptide MEDYVNFNFT
The assay is described as follows: ELISA biotin-peptide; scFv 0.15625 ug/mL; repII. The method, then: as §2, §3, §4

The target in assay [23] is T20, biotin-peptide SSMEDYVNFN
The assay is described as follows: ELISA biotin-peptide; scFv 0.15625 ug/mL; repII. How it is done: as §2, §3, §4

Assay [24] deals with T16, biotin-peptide SMEDYVNFNF
The assay can be described thus: ELISA biotin-peptide; scFv 0.15625 ug/mL; repII. How it is done: as §2, §3, §4

Assay [25] deals with T17, biotin-peptide TSSMEDYVNF
The assay can be described thus: ELISA biotin-peptide; scFv 0.15625 ug/mL; repII. How it is done: as §2, §3, §4

Where no end group is shown, it is not given here. The star is where a group is joined. Biotin = O=C1N[C@H]2[C@H](CS[C@H]2CCCCC(=O)*)N1

T8 sequence (P02769 25-607 limits assumed): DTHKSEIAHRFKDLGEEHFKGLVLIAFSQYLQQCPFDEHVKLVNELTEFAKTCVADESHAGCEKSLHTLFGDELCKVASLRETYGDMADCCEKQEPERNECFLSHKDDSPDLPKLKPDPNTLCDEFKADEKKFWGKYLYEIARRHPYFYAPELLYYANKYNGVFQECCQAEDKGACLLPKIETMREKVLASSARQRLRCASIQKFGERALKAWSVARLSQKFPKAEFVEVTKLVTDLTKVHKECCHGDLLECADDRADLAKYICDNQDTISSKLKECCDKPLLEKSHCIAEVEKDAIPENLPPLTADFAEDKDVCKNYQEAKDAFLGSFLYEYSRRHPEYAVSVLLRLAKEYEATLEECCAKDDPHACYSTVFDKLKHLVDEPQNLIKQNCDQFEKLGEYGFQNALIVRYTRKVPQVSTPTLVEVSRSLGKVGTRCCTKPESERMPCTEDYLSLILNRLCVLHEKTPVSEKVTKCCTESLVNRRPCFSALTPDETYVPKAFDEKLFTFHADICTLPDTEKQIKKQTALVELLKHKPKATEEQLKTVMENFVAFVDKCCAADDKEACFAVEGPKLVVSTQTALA

B1: anti-CCR9 antibody clone 115 (murine, from hybridoma #115) (antibody, V domains shown)
VH: QVQLKQSGPELVKPGTSVRVSCTASGYSFTDYIIYWVKQSHGRSLEWIGYIDPNNYNTRYSQKFKGKATLTVDKSSTSAFMHLNSLTSDDSAVYYCARDVYWGQGTTLTVSS
VL: DVVMTQTPLSLTVSLGDQASISCRSSQSLVHSNGKTYLQWYLQKPGQSPKLLIYKVSNRFSGVPDRFSGSGSGTDFTLKISRVEAEDLGVYFCAQSTHVWTFGGGTKLEIKR
notes: Mouse IgG1
For B1, the OD450 worked out at 0.02 OD in assay [1]; 2.29 OD in [2]; 0.02 OD in [3]; 0.02 OD in assay [4]; 2.46 OD in [5]; 2.09 OD in assay [6]. Also, the OD450 turned out to be 1.95 OD in assay [7], 0.01 OD in assay [8], 0.02 OD in assay [9] and 1.89 OD in assay [10].

B2: Comparative antibody 1 (Comp-1) scFv, SEQ ID NO: 10 from WO2023/037125 A1, His-tagged (scFv)
scFv: QVQLKESGPGLVQPSQTLSLTCTVSGFSVASYDMHWVRLPPGKGLEWMGIIWANGNTHYNSGLKSRLSISRDTSKSQVFLKMNSLQTEDTAIYFCTRGGFAYWGQGTLVTVSSGGGGSGGGGSGGGGSGGGGSDVVMTQTPVSLSVSLGGQVSISCRSSQSLVHNNGNTYLSWYLQKPGQSPQLLIYKVSNRFSGVSDRFSGSGSGTDFTLKISRVEPDDLGVYYCGQGTQYPTFGGGTKLELKHHHHHH
Consider B2, for which the binding result (in assay [11]; with biotin-peptide KNNVRQFAS; in assay [12]; in [13]; in assay [14]; in assay [15]) was “no binding (tested: 10 ug/mL)” throughout. Further, the binding result in assay [16] and in assay [17] was “no binding (tested: 10 ug/mL)” each time.

B3: CCR9_HUM2 scFv (humanized anti-CCR9 scFv, SEQ ID NO: 17 with C-terminal 6xHis tag) (scFv)
scFv: QVQLVQSGAEVKKPGASVKVSCTASGYSFTDYIIYWVKQAHGQSLEWMGYIDPNNYNTRYSQKFQGKVTITVDKSSTSAYMELNSLTSDDTAVYYCARDVYWGQGTTVTVSSGGGGSGGGGSGGGGSGGGGSDVVMTQTPLSLSVTPGQPASISCRSSQSLVHSNGKTYLQWYLQKPGQSPKLLIYKVSNRFSGVPDRFSGSGSGTDFTLKISRVEAEDVGVYFCAQSTHVWTFGGGTKVEIKRAHHHHHH
Consider B3, for which the OD450 in [18] turned out to be 1.41 OD; in assay [19], 1.64 OD; in assay [20], 1.63 OD; in assay [21] it was 0.22 OD; in [22], 1.37 OD; in [23], 1.59 OD. Moreover, the OD450 in assay [24] is 1.6 OD; in [25], 0.18 OD.

The record behind these values is US20260232732A1 (FUNDACI INSTITUT DE RECERCA CONTRA LA LEUC MIA JOSEP …, published 2026).
